Here are results for three molecules from PMC9929473, “Ensembles of human myosin-19 bound to calmodulin and regulatory light chain RLC12B drive multimicron transport” (The Journal of Biological Chemistry, 2023).

Experiment [1] has as its target Myo19-3xIQ-BioTag (human myosin-19 motor domain and IQ region with N-terminal FLAG tag and C-terminal biotin tag) (human) (UniProt Q96H55).
Experiment [2] has the same target. Kind of experiment: co-sedimentation; about 2 μM Myo19-3xIQ-BioTag preparation, 4 μM F-actin, 10 μM CaM in S-Buffer (15 mM Hepes pH 7.5, 7 mM imidazole, 125 mM NaCl, 5 mM MgCl2, 1 mM EGTA, 1 mM DTT), 200,000g 20 min; pellet on SDS-PAGE, gel densitometry with BSA, RLC12B and CaM standards; no calcium.
The target is the same in experiment [3]. The experiment can be described thus: co-sedimentation; as a4 with 1.1 mM CaCl2 added (0.1 mM free Ca2+).
Experiment [4] has the same target. This is another data set of the same source.
For experiment [5] the target is unchanged. This is another data set of the same source.
For experiment [6] the target is unchanged. The experiment can be described thus: SEC-MALS; complex fixed with glutaraldehyde during 5 to 30% glycerol gradient centrifugation (GraFix; 20 mM Hepes pH 7.5, 0.2 M NaCl, 5 mM MgCl2, 1 mM EGTA, 4 °C, without calcium), then TSKgel SuperSW2000 with MALS. Background: SEC sorts molecules by how far they enter the pores of the column.
The target of experiment [7] is T1, Myo19-3xIQ-BioTag (human myosin-19 motor domain and IQ region with N-terminal FLAG tag and C-terminal biotin … (human, UniProt Q96H55 1-851, biotinylated on the BioTag during expression)).
T1 construct: also called HC; biotinylated Myo19; not shown: biotin tag (BioTag), C-terminal, kept
The description is as above. The conditions noted are these: both partners purified.

Experiment [8] deals with T1, Myo19-3xIQ-BioTag (human myosin-19 …). The experiment can be described thus: co-sedimentation; about 2 μM Myo19-3xIQ-BioTag preparation, 4 μM F-actin, 10 μM CaM in S-Buffer (15 mM Hepes pH 7.5, 7 mM imidazole, 125 mM NaCl, 5 mM MgCl2, 1 mM EGTA, 1 mM DTT), 200,000g 20 min; pellet on SDS-PAGE, gel densitometry with BSA, RLC12B and CaM standards; no calcium. The conditions noted are these: both partners purified.

For “Calmodulin (CaM) coexpressed with Myo19-3xIQ-BioTag in Sf9 cells and added in excess (from UniProt P0DP23 1-149) (natural protein)”, in experiment [1], the actin gliding speed with 0.1 mM free calcium against added CaM (0.1 to 10 μM CaM–Ca2+); highest speed at 4 μM stood at 210 nm/s. Further, in experiment [2], the CaM to RLC12B ratio bound to Myo19-3xIQ (CaM per RLC12B) was 1.9 and the stoichiometry N was found to be 3.4. Besides, the CaM:RLC12B ratio bound to Myo19-3xIQ (CaM per RLC12B) in experiment [3] came to 2.8. Also, the actin gliding speed of Myo19-3xIQ-BioTag (copurified with RLC12B and CaM) against added CaM, 37 °C, no calcium; EC50 of a hyperbolic fit in experiment [4] stood at 700 nM. In experiment [5], the actin gliding speed of Myo19 coexpressed with CaM alone against added CaM in the presence of 1 μM RLC12B; EC50 of a hyperbolic fit was found to be 200 nM and the actin gliding speed of Myo19 coexpressed with CaM alone against added CaM; EC50 of a hyperbolic fit worked out at 200 nM. For the same molecule, the stoichiometry N in experiment [6] came out at 2.

In experiment [4], “RLC12B purified from E. coli (MBP removed by TEV protease) (from UniProt O14950 1-172) (natural protein)” displayed an actin gliding speed of Myo19-3xIQ-BioTag (copurified with RLC12B and CaM) against added RLC12B alone, 37 °C; maximal speed at 1 μM RLC12B of 150 nm/s; an actin gliding speed with 4 μM CaM fixed against increasing RLC12B; IC50 of an inhibition fit of 200 nM. Also, in experiment [5], the actin gliding speed when 1 μM RLC12B was added in solution in the presence of CaM is 250 nm/s.

B1: RLC12B coexpressed with Myo19-3xIQ-BioTag in Sf9 cells (natural protein, human, UniProt O14950 1-172, looked up)
chain: MSSKKAKTKTTKKRPQRATSNVFAMFDQSQIQEFKEAFNMIDQNRDGFIDKEDLHDMLASLGKNPTDAYLDAMMNEAPGPINFTMFLTMFGEKLNGTDPEDVIRNAFACFDEEATGTIQEDYLRELLTTMGDRFTDEEVDELYREAPIDKKGNFNYIEFTRILKHGAKDKDD
notes: Myosin regulatory light chain 12B (RLC12B), O14950-1; also called MYL12B; source: Sf9-baculovirus, coexpressed and copurified with Myo19-3xIQ-BioTag
In the case of B1, the “stoichiometry N” value came out at 1 in experiment [7] and 1.8 in experiment [8].

By stoichiometry N is commonly meant a count of units in the complex or per binding partner.
